Sequences and labels used below:
T1: cynomolgus monkey ST2 on HEK293T-Cyno-ST2-NFκB-Luciferase cells (cynomolgus monkey, UniProt Q01638 19-556 (human entry))
T1 chain: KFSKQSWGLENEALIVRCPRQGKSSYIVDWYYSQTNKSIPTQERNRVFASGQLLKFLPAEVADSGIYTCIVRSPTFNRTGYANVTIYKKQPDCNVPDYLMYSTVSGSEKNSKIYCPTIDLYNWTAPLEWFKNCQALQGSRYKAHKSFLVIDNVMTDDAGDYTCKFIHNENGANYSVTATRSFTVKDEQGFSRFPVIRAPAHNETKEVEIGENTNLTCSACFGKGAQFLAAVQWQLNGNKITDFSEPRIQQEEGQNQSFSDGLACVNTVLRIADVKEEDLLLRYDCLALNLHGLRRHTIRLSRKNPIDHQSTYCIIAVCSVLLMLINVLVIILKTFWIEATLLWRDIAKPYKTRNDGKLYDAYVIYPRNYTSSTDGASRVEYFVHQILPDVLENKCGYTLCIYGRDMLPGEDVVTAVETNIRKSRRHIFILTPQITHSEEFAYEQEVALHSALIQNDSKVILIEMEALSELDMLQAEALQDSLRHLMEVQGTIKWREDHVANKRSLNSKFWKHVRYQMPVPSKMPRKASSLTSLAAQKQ

T2: recombinant protein containing hST2 extracellular domain with mouse antibody heavy chain Fc tag (hST2-ECD-mFc) (human)
T2 construct: Used for SPR and for ELISA of chimeric and humanized antibodies; also called human ST2 antigen
T2 chain: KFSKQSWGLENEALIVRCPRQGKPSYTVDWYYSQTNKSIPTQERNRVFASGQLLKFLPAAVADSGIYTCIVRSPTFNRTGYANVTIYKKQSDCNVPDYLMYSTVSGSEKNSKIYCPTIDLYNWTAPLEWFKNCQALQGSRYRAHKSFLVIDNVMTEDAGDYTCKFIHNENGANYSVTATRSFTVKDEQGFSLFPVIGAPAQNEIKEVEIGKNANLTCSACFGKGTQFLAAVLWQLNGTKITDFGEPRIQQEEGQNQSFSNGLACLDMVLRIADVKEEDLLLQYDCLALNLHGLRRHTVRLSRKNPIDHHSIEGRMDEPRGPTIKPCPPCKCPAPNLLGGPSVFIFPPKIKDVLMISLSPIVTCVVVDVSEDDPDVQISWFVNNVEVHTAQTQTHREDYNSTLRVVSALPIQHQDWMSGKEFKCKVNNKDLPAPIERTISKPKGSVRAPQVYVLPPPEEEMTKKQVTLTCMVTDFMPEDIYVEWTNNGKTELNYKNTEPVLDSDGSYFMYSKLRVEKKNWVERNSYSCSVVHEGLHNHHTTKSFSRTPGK

B1: Chimeric 31C8 (antibody, human IgG2, kappa, V domains shown)
VH: QVQLQQSGPELVRPGASVTLSCKASGYIFIDSEMHWVKQTPVHGLEWIGAIDPETGDTVYNQKFKGKATLTADKSSSTASMELSSLTSEDSAVYYCTGSTTDYYFAYWGQGTTLTVSS
VL: DIVMTQAAFSNPVTLGTSASISCRSSKSLLHSNGIIYLYWYLQKPGQSPQLLIYQMSNLASGVPDRFSSSGSGTDFTLRISRVEAEDVGVYYCAQNLELPFTFGSGTKLEIKR
notes: also called xi31C8
B2: Chimeric 3C6 (antibody, human IgG2, kappa, V domains shown)
VH: QVQLQQSGAEVVRPGASVTLSCKASDYTITDYEMHWVKQTPVHGLEWIGAIDPETGDTAYSQNFKGKATLTADESSSTAYMELSSLTSEDSAVYYCSRSATDYYFASWGQGTTLTVSS
VL: B1 VL with F9I, I21M, I36T, Q47H, R79K
notes: also called xi3C6
B3: Chimeric 8F4 (antibody, human IgG2, kappa, V domains shown)
VH: B1 VH with P9A, Y27H, I30T, S32Y, H35Q, I51F, V59A, S80Y, T97S, T113S
VL: B1 VL with I2V, A7T
notes: also called xi8F4
B4: Chimeric 26A1 (antibody, human IgG2, kappa, V domains shown)
VH: B1 VH with P9A, G26D, I30T, M34I, P41L, V59A, S80Y, D90G, T97S, Y103C
VL: B1 VL
notes: also called xi26A1
B5: Chimeric 17E2 (antibody, human IgG2, kappa, V domains shown)
VH: QVQLQQSGAELVRPGASVTLSCKASGYTFTDYEMHWVKQTPVLGLEWIGAIDPETGDTAYNQKFKGKATLTADKSSSTAYMELSSLASEDSAVYYCIRVDSNYDYFDYWGQDTTLTVSS
VL: DIVLTQSPPILSASPGEKVTMTCRASSSVSYMHWYQQKPGSSPKPWIYDTSNLASGVPARFSGSGSGTSYSLTISRVEAEDAATYYCQQWSSNPLTFGAGTKLELKR
notes: also called xi17E2
B6: RG6149 (antibody Ab2 in CN104334582, prepared in-house) (antibody, human IgG2, kappa, V domains shown)
VH: EVQLVQSGAEVKKPGESLKISCKGSGYSFTNYWIGWVRQMPGKGLEWMGIIYPGNSDTRFSPSFQGQVTISADKSITTAYLQWSSLKASDTAMYYCARHGTSSDYYGLDVWGQGTTVTVSS
VL: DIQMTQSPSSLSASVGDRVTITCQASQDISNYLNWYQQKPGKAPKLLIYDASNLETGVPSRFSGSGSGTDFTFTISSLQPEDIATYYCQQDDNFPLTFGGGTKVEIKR
notes: Control anti-ST2 antibody
B7: Chimeric 7D1 (antibody, human IgG2, kappa, V domains shown)
VH: QVQLQQSGAELVRPGASVTLSCKASGYTFTDYEMHWVKQTPVHGLDWIGTIDPETGDTAYNQKFKGRATLTADKSSSTAYMELSSLTSEDSAVYYCTRYSYTNSPYGMDYWGQGTSVTVSS
VL: DVVMTQTPKFLLVSAGDRVTITCKASQSVSNDVAWYQQKPGQSPKLLIYYASNRYTGVPDRFTGSGYGTDFTFTINTVQAEDLAVYFCQQDYSSPYTFGGGTKLEIKR
notes: also called xi7D1

The record followed here is patent US20230272086A1 (CHIA TAI TIANQING PHARMACEUTICAL GROUP, published 2023).

Positions count from the first letter of the chain named.

One experiment concerns the target T1, cynomolgus monkey ST2 on …. Description: flow cytometry on HEK293T-Cyno-ST2-NFκB-Luciferase cells. As for the experimental part:
The binding capacity of the anti-ST2 antibodies to hST2-overexpressing cell lines and cyno-ST2-overexpressing cell lines was analyzed using an FACS-based method through binding assays with the hST2 (SEQ ID NO:1)-overexpressing HEK293T cell line (HEK293T-hST2-NFκB-Luciferase) and the cynomolgus monkey ST2 (SEQ ID NO: 10)-overexpressing HEK293T cell line (HEK293T-Cyno-ST2-NFKB-Luciferase). HEK293 cells were transfected with the pLenti6.3- hST2 plasmid and the pLenti6.3-NFκB-luciferasae plasmid using a lentiviral transfection system to construct the cell line HEK293T-hST2-NFκB-Luciferase. HEK293T cells were transfected with the pLenti6.3-cynoST2 plasmid and the pLenti6.3-NFκB-luciferasae plasmid to construct the cell line HEK293T-Cyno-ST2-NFκB-Luciferase.
3 × 10⁵ HEK293T-hST2-NFκB-Luciferase or HEK293T-Cyno-ST2-NFκB-Luciferase cells were added to a 96-well culture plate. Serially diluted anti-ST2 antibodies (serially diluted 4-fold from an initial concentration of 667 nM to 8 concentrations in binding assays with the HEK293T-hST2-NFκB-Luciferase cells; serially diluted 4-fold from an initial concentration of 400 nM to 8 concentrations in binding assays with the HEK293T-Cyno-ST2-NFκB-Luciferase cells) were added to the cell suspensions. After the plate was incubated at room temperature for 60 min, the cells were washed 3 times with PBS. […] The cells were washed 3 times with PBS and resuspended in 100 µ1L of PBS, and then the fluorescence signals were analyzed and detected using a flow cytometer (BD, Accuri C6). The binding capacity of the anti-ST2 antibodies to hST2 and cyno-ST2 on the cell line surfaces was measured in terms of the mean fluorescence intensity (MFI) of staining. The data were analyzed using GraphPad Prism5, and the EC₅₀ values were calculated. The EC₅₀ values for the binding of the anti-ST2 chimeric antibodies to hST2 and Cyno-ST2 at the cellular level are shown in Table 8 and FIGS. 7-8.
In general, EC50 refers to the midpoint of the concentration-response curve. In turn, B1 had an EC50 of 0.83 nM.

In turn, B2 displayed an EC50 of 105 nM.

As for B3, the EC50 was determined as 0.458 nM.

In turn, B4 registered a concentration giving a half-maximal response (EC50) of 415 nM.

With B5, the concentration for a half-maximal effect (EC50) was determined as 0.487 nM.

For B6, the concentration giving a half-maximal response (EC50) was 0.647 nM.

The molecule B7 gave an EC50 of 0.394 nM.

A further experiment addresses T2, recombinant protein containing hST2 …. Kind of experiment: ELISA, plate coated with hST2-ECD-mFc. As for the experimental part:
ST2 binding screening and analysis of antibodies were performed by ELISA using hST2-ECD-mFc (for assays of chimeric and humanized antibodies), hST2-ECD-hFc protein (for assays of hybridoma antibodies) and Cyno-ST2-his (Sino biological, 90915-C08H) as antigens. A high-adsorption 96-well plate (Costar, 9018) was coated with 2 µg/mL hST2-ECD-mFc or Cyno-ST2-his antigen at 100 µL/well and incubated overnight at 4° C. After the antigen not adsorbed was well washed off, the non-specific binding sites were blocked with a blocking buffer (PBS containing 2% bovine serum albumin). After the plate was washed three times with a washing buffer (PBS containing 0.05% (v/v) Tween 20), the anti-ST2 antibodies (serially diluted 3-fold from an initial concentration of 10 nM to 8 concentrations: 3.333 nM, 1.111 nM, 0.370 nM, 0.123 nM, 0.041 nM, 0.014 nM, 0.005 nM, and 0.002 nM) were added at 100 µL/well, and the plate was incubated at room temperature for 1 h. After the plate was washed with the washing buffer, a horseradish peroxidase (HRP)-conjugated secondary antibody was added, and the plate was incubated for another 60 min. After the plate was washed with the washing buffer, the substrate TMB solution (Thermo, 00-4201-56) was added at 100 µL/well, and the plate was incubated at room temperature for 2 min. A stop solution (2 N H₂SO₄) was added at 100 µL/well to terminate the reactions. Colorimetric signals were generated and read at 450 nm using a microplate reader (PE, Envision). The data were analyzed using GraphPad Prism5, and the EC₅₀ values were calculated.
A general note: An ELISA detects its analyte on a solid surface through an enzyme-linked reagent.
B1: the EC50 turned out to be 0.184 nM.

For B2, the EC50 was determined as 0.157 nM.

Take B3: the concentration for a half-maximal effect (EC50) amounted to 0.172 nM.

As to B4, the EC50 was 0.175 nM.

In the case of B5, the EC50 stood at 0.235 nM.

As for B6, the EC50 worked out at 0.113 nM.

Take B7: the EC50 came to 0.191 nM.
